Sequences and labels used below:
B1: unnamed (parent)
chain 1: MGNYIKPLSAGVALIASDSTWIEGKAIQQLQTTAELDGMCRVVGLPDLHPGRGYPVGAAFFSVGRFYPALVGNDIGCGMALWETGLALGKLSADKLEKRLGNLDLPLDETWSDCIEALDLPAREHWRALGTIGGGNHFAELQQVETVFDQAALHALGLDADRLQLLVHSGSRGLGQAILQEHVSLHGHAGLLDGSLEASAYLARHADALRFAEGNRQLIARRILERLRCDGLELLDINHNLVVPAQVDGVDGWLHRKGATPADQGVLVIPGSRGDYSYLVEPVPSAQSLFSLAHGAGRKWQRGECRERLAARFSVDQLGRTRLGSRVICGDRQLIYEEAPEAYKGIDSVVGALLEAGLLRLVARLKPVLTYKTRGECCR
chain 2: MARKTKEESQKTRDGILDAAERVFLEKGVGTTAMADLADAAGVSRGAVYGHYKNKIEVCLAMCDRAFGQIEVPDENARVPALDILLRAGMGFLRQCCEPGSVQRVLEILYLKCERSDENEPLLRRRELLEKQGQRFGLRQIRRAVERGELPARLDVELASIYLQSLWDGICGTLAWTERLRDDPWNRAERMFRAGLDSLRSSPYLLLADA

This test covers variants of B1. Nature of the test: bacterial 2-hybrid assay (β-galactosidase activity in E. coli SU202). Conditions: with partner chain of the complex shown; IPTG-induced cells; read off a plot.
Consider chain 1 P68S, for which the response was determined as 610 Miller Units.
For chain 1 R216C the value was 720 Miller Units; for chain 1 G252S, 700 Miller Units; for chain 1 G231D, 730 Miller Units.
Take chain 1 R221Q: the response is 510 Miller Units.
For chain 1 R221W the value was 680 Miller Units; for chain 1 G76S, 470 Miller Units.
